In patent US20250355001A1, “METHOD FOR DETECTING A TAU PROTEIN FRAGMENT IN A SAMPLE” (GTINVENT LIMITED, priority 2022, published 2025):

Columns and labels:
[1] = system: hT40, dGA, dGAE and truncated tau fragments; test: Binding ELISA / epitope mapping of anti-tau scAbs with truncated tau proteins and 13mer peptides; set-up: species or system human; conditions: for Tau proteins/fragments with positive scAb reactivity: binding ELISA
How it was run: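 Plates coated with 1 μg/ml tau protein, or 5 μg/ml streptavidin then 1 μg/ml biotinylated 13mer peptide; blocked with 2% MPBS. scAbs added at a starting concentration and double-diluted. Bound scAb detected with HRP anti-human C kappa and read as absorbance.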

hT40 = target: T1, hT40 (Homo sapiens, UniProt P10636); test: Sandwich ELISA limits of detection (LoD) of antibody pairs; format: binding; conditions: S1D12 mAb capture, hT40
T1 construct: Full length tau (hT40)
T1 sequence (P10636 1-441 isoform P10636-8): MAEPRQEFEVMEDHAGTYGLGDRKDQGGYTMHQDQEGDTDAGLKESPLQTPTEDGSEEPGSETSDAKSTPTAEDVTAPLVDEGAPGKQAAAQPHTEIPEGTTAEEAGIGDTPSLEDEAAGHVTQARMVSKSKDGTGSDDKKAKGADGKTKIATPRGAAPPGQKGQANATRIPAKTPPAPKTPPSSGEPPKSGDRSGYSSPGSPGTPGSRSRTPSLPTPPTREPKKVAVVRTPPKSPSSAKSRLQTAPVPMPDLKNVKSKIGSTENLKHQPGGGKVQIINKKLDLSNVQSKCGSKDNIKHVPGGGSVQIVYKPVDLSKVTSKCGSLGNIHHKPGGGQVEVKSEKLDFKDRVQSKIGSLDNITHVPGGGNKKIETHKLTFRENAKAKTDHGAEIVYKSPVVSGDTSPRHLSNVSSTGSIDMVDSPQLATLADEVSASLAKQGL
Description: The diverse panel of high affinity anti-tau antibodies (scAb and mAb formats) were paired in various combinations and tested in a Sandwich (or Capture) ELISA format to calculate their limits of detection (LoD) and their ability to differentiate between different tau species. Biologically, tau exists in 6 different isoforms and is subjected to numerous post translational modifications, some of them playing a significant role in the progression of neurodegeneration.
For Sandwich ELISA using colourimetric detection, 96 well Maxisorp plates were coated with the capture antibody S1D12 mAb at 1 μg/ml for 1 h at RT followed by blocking with 2% MPBS as normal. Full length tau (hT40), at 1 μg/ml starting concentration was added to designated wells and double diluted across rest of the plates and left to incubate at R/T for 1 h. A series of detection scAbs with varying epitope recognition properties were added at 10 μg/ml to designated wells (FIG. 22). For colourimetric detection HRP conjugated anti-HuCk secondary antibody was used and the resulting immunoreaction was developed and absorbance at 450 nm measured as described previously. Cut-off point for a positive binding event was an absorbance value of 0.3 following background subtraction. In order to enhance the assay sensitivity, a chemiluminescent detection method was adopted where 50 μL SuperSignal ELISA Femto Substrate (Thermo Scientific) was added to each well following incubation with anti-HuCK HRP antibody and subsequent washing. The luminescence was read using Clariostar Plus microplate reader. A further modification to this protocol was done where various detection scAbs were directly conjugated with HRP and detected using chemiluminescent protocol as before. The lowest levels of detection achieved using different detection scAbs and a comparison of colourimetric and chemiluminescent methods of detection are shown in Table 28
Similarly, a sandwich ELISA format was set up using S1G2 mAb at 1 μg/ml as the capture antibody and HRP conjugated S1D12 mAb for detection. The assay was conducted using chemiluminescent protocol described above.

dGAE (SEQ ID NO: 4) = dGAE (SEQ ID NO: 4) (Homo sapiens, UniProt P10636); test: Biacore X100 SPR kinetics of scAbs for dGAE; format: binding; conditions: Table 24, scAb, dGAE analyte
Chain of dGAE (SEQ ID NO: 4) (P10636 614-708): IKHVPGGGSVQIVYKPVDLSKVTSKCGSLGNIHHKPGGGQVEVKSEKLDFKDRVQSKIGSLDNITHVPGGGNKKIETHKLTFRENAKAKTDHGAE
Procedure: Surface plasmon resonance (SPR) is widely regarded as the gold standard for real time measurement of protein-protein interactions such as antibody binding. All SPR experiments were carried out using a Biacore X100 machine and HBS EP+ running buffer (GE Healthcare). A ‘capture’ method was followed for affinity measurements, where an anti-human constant kappa chain (HuCk) antibody was conjugated to the surface of a CM5 sensor chip using an amine coupling kit and scAb molecules were immobilised via their HuCk domain. Amine coupling is a very common approach for immobilising the ligand to the chip surface. The chip surface has a dextran matrix derivatised with carboxyl groups, which after activation with N-hydroxysuccinimide (NHS) and 1-ethyl-3-(3-dimethylaminopropyl) carbodiimide (EDC), form reactive succinimide esters which allows the covalent capturing of the ligand via any available primary amine groups (e.g. Lysine) on the ligand (in this case anti-HuCk antibody). The capture antibody was diluted 1/100 in 10 mM Sodium acetate buffer pH 5.0 and passed over the activated chip surface for a period of at least 420 s. Final ligand immobilisation levels over 12,000 RU were deemed to be satisfactory.
Following immobilisation, the level of each scAb to be captured was identified using the standard SPR equation with a theoretical RMax of 100 RU. Analyte MW refers to the molecular weight of hT40 or dGA/dGAE molecules, while ligand MW refers to the molecular weight of the scAbs tested. RL is the desired capture level and S refers to the stoichiometric ratio:
The scAb to be tested was added only to flow cell 2 so that flow cell 1 could act as a control to subtract any interaction with the analyte and the chip surface. Both single and multi-cycle runs were utilised using wizards developed in the Biacore X100 control software which are both accepted methods of kinetic analysis (Karlsson, R., et al. Analyzing a kinetic titration series using affinity biosensors (2006) Analytical Biochemistry 349:136-47). The multi-cycle protocol was as follows-Three start-up cycles composed of an initial capture, to the desired level, of the scAb to be tested was performed followed by a 30 s injection of glycine buffer pH 2.0 after each cycle to regenerate the chip surface. The regeneration step removed any captured scAb whilst leaving the capture antibody intact and able to repeat the capture for the next cycle. […]
The single cycle kinetics protocol was similar and utilised the same level of scAb capture. […] Binding responses were analysed in Biacore X100 evaluation software and data fitted to a 1:1 binding model to obtain kinetic and affinity characterisation.

[2] = system: core tau in plasma of wildtype, Line 1 and Line 66 mice; test: S1D12 mAb 6-week repeat-dose mouse study; plasma tau by CA4-S1G2 Simoa; format: in vivo; conditions: for plasma tau (CA4-S1G2 Simoa): 30 mg/kg i.p. once per week, six weeks
Procedure: A total of 12 wildtype, 12 Line 1 and 12 Line 66 female mice were used in this study-Line 1 and Line 66 are transgenic mouse models of tauopathy ( Melis et al., 2015). Animals were 2 months old at the beginning of the study. Mice of each genotype were injected intraperitoneally (i.p.) with either vehicle or S1D12 mAb (30 mg/kg), once per week, for six consecutive weeks.
Seven days post final dose, cardiac puncture blood sampling was performed. mice were anaesthetised using an overdose of sodium pentobarbital (i.p.) and blood was collected via cardiac puncture through a Plastipak syringe pre-rinsed with heparinised saline (10 U/mL) and transferred into a plastic vial containing lithium heparin anticoagulant. Blood samples were centrifuged to obtain plasma at 2,000×g for 5 min at 6° C.
A three-step assay was performed and analysed by following the previously described plasma screening methods using CA4 antibody capture beads, S1G2 detector (10 ng/ml) and the plasma samples added in 1:8 dilution.

dGAE aggregates = dGAE aggregates (Homo sapiens, UniProt P10636); test: Sandwich ELISA on SDS/Triton X-100 treated dGAE aggregates; format: binding; conditions: S1D12 mAb capture, S1G2 scAb detection; SDS + Triton X-100
Chain of dGAE aggregates (P10636 614-708): as above
Procedure: We have noticed Sodium dodecyl sulphate (SDS) can break apart dGA/dGAE aggregates and separate them into smaller fragments by performing an SDS-PAGE. This has been replicated and tested using an ELISA as described below.
For aggregation, 1000 μL 100 μM dGAE+10 μL 10 mM DTT was added to a ‘LoBind’ microfuge tubes and agitated at 700 RPM/37° C. for 24 hours. Resulting sample centrifuged at 17,000×g/4° C. for 60 min and supernatant discarded to remove left over monomer. Pellet resuspended in half the original volume for future experiments and hereafter referred to as ‘aggregates’. 1 μl of aggregates was added to 1 ml of PBS and SDS was added to a final concentration of 1% (w/v). This was left to incubate on lab bench for 1 h with gentle agitation every 15 minutes. In order to neutralize the SDS effect on ELISA, Triton X-100 added to a final concentration of 3% (v/v) and mixed gently by pipetting to prevent any bubble formation. 200 μl added of this mix was to the first well of an ELISA plate coated with 1 μg/ml S1D12 mAb and blocked with 2% MPBS. Similarly aggregates treated with only SDS or Triton X-100, untreated aggregates, dGAE monomers treated with only SDS or SDS+Titon X-100 were also added to designated wells as controls. All samples were then double diluted across the plate in final volumes of 100 μl. The final column was left with no protein to act as a blank. This was allowed to stand at room temperature for 1 hour followed by the addition of detection scAb-S1G2 at 10 μg/ml. Anti-HuCk HRP labelled secondary antibody was added as described previously and ELISA data generated was represented using the graph below.

B1: CA2: anti-tau clone, Table 10; SEQ ID NO: 363 (protein)
chain: QVQLQESGPSLVKPSQTLSLTCTVSGFSLSSVAVNWVRQAPGKVPEWLGGIISNGGTGYNPALKSRLSITRDTSKSQVSLALTHVTTEDTAVYYCGRGVEWEGSMDYLGPGLLVTVSSEGKSSGSGSETKVDDQSVLTQPSSVSGFLGQRVTITCSGSSSNVGAGSYVGWYQQVPGSGLRILIYGATKRASGLPDRFSGSRSGNTATLTISSLQAEDEADYYCVSYQTDFTLVFGSGTRLTVLG
modifications: CA2 amino acid sequence
[1]; Table 17, 'C' group scAbs
  Tau proteins/fragments with positive scAb reactivity: hT40, 1-49, 1-319, 1-155, 186-350, 348-441
[1]; Table 17, 'C' group scAbs, incl. 13mer peptides
  Shortest region bound on hT40: 1-155
[1]; Table 28 (LoD table), residues of hT40
  Detection scAb (Epitope): CA2 (100-155)
[1]; residue numbers of SEQ ID NO: 1 (hT40), CDR Tables 1-11
  Epitope: 1-155
hT40; SuperSignal ELISA Femto Substrate
  LoD (ng/ml) chemiluminescence detection: 0.37 ng/mL
hT40; detection scAb 10 μg/ml, anti-HuCk HRP
  LoD (ng/ml) colourimetric detection: 6 ng/mL

B2: E1E8: dGAE (391E) specific clone, Table 9; SEQ ID NO: 250 (protein)
scFv: QVQLQESGPSLVKPSQTLSLTCTVSGFSLTDWGVAWVRQAPGKALEWLGTMRSGGTTDDNPALKSRLSITRDTSKSQVSLSLSSVTTEDMAMYYCARGYLSGVHYAWGRGLLVTVSSEGKSSGASGESKVDDQAVLTQPSSVSGSLGQSVSITCSGSSSNVGDGRYVSWFQQVPGSAPKLLIYDTTSRASGVPDRFSGSRSGNTATLIITSLQAEDEADYYCASIDSGNNLLFGSGTRLTVLG
modifications: E1E8 amino acid sequence
[1]; ELISA, 'E' group scAbs
  cross-reactivity using hT40, dGA and dGAE antigens: specific dGAE binding
[1]; Table 15, residue numbers of hT40
  Tau proteins/fragments with positive scAb reactivity: 297-391 (dGAE)
dGAE (SEQ ID NO: 4)
  ka: 153500 M⁻¹ s⁻¹
dGAE (SEQ ID NO: 4); dissociation rate
  Kd: 0.0014 s⁻¹

B3: S1D12 mAb: S1D12 reformatted; heavy chain SEQ ID NO: 445, light chain 446 (antibody)
heavy: QVQLQESGPSLVKPSQTLSLTCTVSGFSLNNNAVGWVRQAPGKVPESLVGCSSDGTCYYNSALKSRLDITRDTSKNQISLSLSSVTTDDAAVYYCTRGHYSIYGYDYLGTIDYWGPGLLVTVSSAKTTAPSVYPLAPVCGDTTGSSVTLGCLVKGYFPEPVTLTWNSGSLSSGVHTFPAVLQSDLYTLSSSVTVTSSTWPSQSITCNVAHPASSTKVDKKIEPRGPTIKPCPPCKCPAPNLLGGPSVFIFPPKIKDVLMISLSPIVTCVVVDVSEDDPDVQISWFVNNVEVHTAQTQTHREDYNSTLRVVSALPIQHQDWMSGKEFKCKVNNKDLPAPIERTISKPKGSVRAPQVYVLPPPEEEMTKKQVTLTCMVTDFMPEDIYVEWTNNGKTELNYKNTEPVLDSDGSYFMYSKLRVEKKNWVERNSYSCSVVHEGLHNHHTTKSFSRTPGK
light: QAVLTQPSSVSGSLGQRVSITCSGSSSNVGGGNSVGWYQHLPGSGLKTIIYDTNSRPSGVPDRFSGSRSGNTATLTINSLQAEDEGDYYCVTGDSTTHDDLVGSGTRLTVLGGQPKSSPSVTLFPPSSEELETNKATLVCTITDFYPGVVTVDWKVDGTPVTQGMETTQPSKQSNNKYMASSYLTLTARAWERHSSYSCQVTHEGHTVEKSLSRADCS
modifications: S1D12 mAB Heavy Chain; S1D12 mAB Light Chain
[2]; L1 mice
  increase of core tau in plasma vs vehicle: more than 100 fold
  plasma tau (CA4-S1G2 Simoa): > 100 ng/mL
[2]; L66+/+ mice, mean (SEM)
  plasma tau (CA4-S1G2 Simoa): 3.52 (0.20) ng/ml
[2]; L66 mice
  increase of core tau in plasma vs vehicle: more than a threefold increase
[2]; wild-type mice
  increase of core tau in plasma vs vehicle: less than a two-fold increase
[2]; wildtype mice, mean (SEM)
  plasma tau (CA4-S1G2 Simoa): 3.57 (0.22) ng/ml
dGAE aggregates
  dGAE aggregates detectable: approximately 2 ng/ml
